These are literature values, as cited in paper PMC9489792.

One series deals with Glu85 (UniProt position 98, WARYAEWLFTT). The conditions noted are these: not stated (presumably the dark/ground state with protonated Schiff base).
A further series deals with Asp85 (UniProt position 98, WARYADWLFTT). The conditions noted are these: not stated (presumably the dark/ground state with protonated Schiff base).

As usually defined, the pKa is the negative logarithm of the acid dissociation constant. Regarding “Bacteriorhodopsin D85E mutant (BR-D85E) (Halobacterium salinarum (organism inferred; the article only says BR / bacteriorhodopsin); D85E)”, the pKa with Glu85 is 6.5. For the substance “Bacteriorhodopsin (BR) (Halobacterium salinarum (organism inferred; the article only says BR / bacteriorhodopsin))”, in the series with Asp85, the pKa is reported as 3.6.
